Laboratory results taken from patent publication US20090118184A1 (UNIVERSITY OF ROCHESTER, published 2009).

B1: factor VIIIa A2 subunit, S524A (other)
chain: SVAKKHPKTWVHYIAAEEEDWDYAPLVLAPDDRSYKSQYLNNGPQRIGRKYKKVRFMAYTDETFKTREAIQHESGILGPLLYGEVGDTLLIIFKNQASRPYNIYPHGITDVRPLYSRRLPKGVKHLKDFPILPGEIFKYKWTVTVEDGPTKADPRCLTRYYSSFVNMERDLASGLIGPLLICYKESVDQRGNQIMSDKRNVILFSVFDENRSWYLTENIQRFLPNPAGVQLEDPEFQASNIMHSINGYVFDSLQLSVCLHEVAYWYILSIGAQTDFLSVFFSGYTFKHKMVYEDTLTLFPFSGETVFMSMENPGLWILGCHNSDFRNRGMTALLKVSSCDKNTGDYYEDSYEDISAYLLSKNNAIEPR
B2: factor VIIIa A2 subunit, E683A (other)
chain: SVAKKHPKTWVHYIAAEEEDWDYAPLVLAPDDRSYKSQYLNNGPQRIGRKYKKVRFMAYTDETFKTREAIQHESGILGPLLYGEVGDTLLIIFKNQASRPYNIYPHGITDVRPLYSRRLPKGVKHLKDFPILPGEIFKYKWTVTVEDGPTKSDPRCLTRYYSSFVNMERDLASGLIGPLLICYKESVDQRGNQIMSDKRNVILFSVFDENRSWYLTENIQRFLPNPAGVQLEDPEFQASNIMHSINGYVFDSLQLSVCLHEVAYWYILSIGAQTDFLSVFFSGYTFKHKMVYEDTLTLFPFSGETVFMSMANPGLWILGCHNSDFRNRGMTALLKVSSCDKNTGDYYEDSYEDISAYLLSKNNAIEPR
B3: factor VIIIa A2 subunit, R531A (other)
chain: SVAKKHPKTWVHYIAAEEEDWDYAPLVLAPDDRSYKSQYLNNGPQRIGRKYKKVRFMAYTDETFKTREAIQHESGILGPLLYGEVGDTLLIIFKNQASRPYNIYPHGITDVRPLYSRRLPKGVKHLKDFPILPGEIFKYKWTVTVEDGPTKSDPRCLTAYYSSFVNMERDLASGLIGPLLICYKESVDQRGNQIMSDKRNVILFSVFDENRSWYLTENIQRFLPNPAGVQLEDPEFQASNIMHSINGYVFDSLQLSVCLHEVAYWYILSIGAQTDFLSVFFSGYTFKHKMVYEDTLTLFPFSGETVFMSMENPGLWILGCHNSDFRNRGMTALLKVSSCDKNTGDYYEDSYEDISAYLLSKNNAIEPR
B4: factor VIIIa A2 subunit, D666A (other)
chain: SVAKKHPKTWVHYIAAEEEDWDYAPLVLAPDDRSYKSQYLNNGPQRIGRKYKKVRFMAYTDETFKTREAIQHESGILGPLLYGEVGDTLLIIFKNQASRPYNIYPHGITDVRPLYSRRLPKGVKHLKDFPILPGEIFKYKWTVTVEDGPTKSDPRCLTRYYSSFVNMERDLASGLIGPLLICYKESVDQRGNQIMSDKRNVILFSVFDENRSWYLTENIQRFLPNPAGVQLEDPEFQASNIMHSINGYVFDSLQLSVCLHEVAYWYILSIGAQTDFLSVFFSGYTFKHKMVYEATLTLFPFSGETVFMSMENPGLWILGCHNSDFRNRGMTALLKVSSCDKNTGDYYEDSYEDISAYLLSKNNAIEPR
B5: factor VIIIa A2 subunit, Y664F (other)
chain: SVAKKHPKTWVHYIAAEEEDWDYAPLVLAPDDRSYKSQYLNNGPQRIGRKYKKVRFMAYTDETFKTREAIQHESGILGPLLYGEVGDTLLIIFKNQASRPYNIYPHGITDVRPLYSRRLPKGVKHLKDFPILPGEIFKYKWTVTVEDGPTKSDPRCLTRYYSSFVNMERDLASGLIGPLLICYKESVDQRGNQIMSDKRNVILFSVFDENRSWYLTENIQRFLPNPAGVQLEDPEFQASNIMHSINGYVFDSLQLSVCLHEVAYWYILSIGAQTDFLSVFFSGYTFKHKMVFEDTLTLFPFSGETVFMSMENPGLWILGCHNSDFRNRGMTALLKVSSCDKNTGDYYEDSYEDISAYLLSKNNAIEPR
B6: factor VIIIa A2 subunit, N684A (other)
chain: SVAKKHPKTWVHYIAAEEEDWDYAPLVLAPDDRSYKSQYLNNGPQRIGRKYKKVRFMAYTDETFKTREAIQHESGILGPLLYGEVGDTLLIIFKNQASRPYNIYPHGITDVRPLYSRRLPKGVKHLKDFPILPGEIFKYKWTVTVEDGPTKSDPRCLTRYYSSFVNMERDLASGLIGPLLICYKESVDQRGNQIMSDKRNVILFSVFDENRSWYLTENIQRFLPNPAGVQLEDPEFQASNIMHSINGYVFDSLQLSVCLHEVAYWYILSIGAQTDFLSVFFSGYTFKHKMVYEDTLTLFPFSGETVFMSMEAPGLWILGCHNSDFRNRGMTALLKVSSCDKNTGDYYEDSYEDISAYLLSKNNAIEPR
B7: factor VIIIa A2 subunit, N538A (other)
chain: SVAKKHPKTWVHYIAAEEEDWDYAPLVLAPDDRSYKSQYLNNGPQRIGRKYKKVRFMAYTDETFKTREAIQHESGILGPLLYGEVGDTLLIIFKNQASRPYNIYPHGITDVRPLYSRRLPKGVKHLKDFPILPGEIFKYKWTVTVEDGPTKSDPRCLTRYYSSFVAMERDLASGLIGPLLICYKESVDQRGNQIMSDKRNVILFSVFDENRSWYLTENIQRFLPNPAGVQLEDPEFQASNIMHSINGYVFDSLQLSVCLHEVAYWYILSIGAQTDFLSVFFSGYTFKHKMVYEDTLTLFPFSGETVFMSMENPGLWILGCHNSDFRNRGMTALLKVSSCDKNTGDYYEDSYEDISAYLLSKNNAIEPR
B8: factor VIIIa A2 subunit, E540A (other)
chain: SVAKKHPKTWVHYIAAEEEDWDYAPLVLAPDDRSYKSQYLNNGPQRIGRKYKKVRFMAYTDETFKTREAIQHESGILGPLLYGEVGDTLLIIFKNQASRPYNIYPHGITDVRPLYSRRLPKGVKHLKDFPILPGEIFKYKWTVTVEDGPTKSDPRCLTRYYSSFVNMARDLASGLIGPLLICYKESVDQRGNQIMSDKRNVILFSVFDENRSWYLTENIQRFLPNPAGVQLEDPEFQASNIMHSINGYVFDSLQLSVCLHEVAYWYILSIGAQTDFLSVFFSGYTFKHKMVYEDTLTLFPFSGETVFMSMENPGLWILGCHNSDFRNRGMTALLKVSSCDKNTGDYYEDSYEDISAYLLSKNNAIEPR
B9: factor VIIIa A2 subunit, S650A (other)
chain: SVAKKHPKTWVHYIAAEEEDWDYAPLVLAPDDRSYKSQYLNNGPQRIGRKYKKVRFMAYTDETFKTREAIQHESGILGPLLYGEVGDTLLIIFKNQASRPYNIYPHGITDVRPLYSRRLPKGVKHLKDFPILPGEIFKYKWTVTVEDGPTKSDPRCLTRYYSSFVNMERDLASGLIGPLLICYKESVDQRGNQIMSDKRNVILFSVFDENRSWYLTENIQRFLPNPAGVQLEDPEFQASNIMHSINGYVFDSLQLSVCLHEVAYWYILSIGAQTDFLAVFFSGYTFKHKMVYEDTLTLFPFSGETVFMSMENPGLWILGCHNSDFRNRGMTALLKVSSCDKNTGDYYEDSYEDISAYLLSKNNAIEPR
B10: factor VIIIa A2 subunit, D696A (other)
chain: SVAKKHPKTWVHYIAAEEEDWDYAPLVLAPDDRSYKSQYLNNGPQRIGRKYKKVRFMAYTDETFKTREAIQHESGILGPLLYGEVGDTLLIIFKNQASRPYNIYPHGITDVRPLYSRRLPKGVKHLKDFPILPGEIFKYKWTVTVEDGPTKSDPRCLTRYYSSFVNMERDLASGLIGPLLICYKESVDQRGNQIMSDKRNVILFSVFDENRSWYLTENIQRFLPNPAGVQLEDPEFQASNIMHSINGYVFDSLQLSVCLHEVAYWYILSIGAQTDFLSVFFSGYTFKHKMVYEDTLTLFPFSGETVFMSMENPGLWILGCHNSAFRNRGMTALLKVSSCDKNTGDYYEDSYEDISAYLLSKNNAIEPR

Target: T1, factor VIIIa A1/A3C1C2 dimer, wild type (human, UniProt P00451 20-391; P00451 1709-2351)
T1 sequence 1: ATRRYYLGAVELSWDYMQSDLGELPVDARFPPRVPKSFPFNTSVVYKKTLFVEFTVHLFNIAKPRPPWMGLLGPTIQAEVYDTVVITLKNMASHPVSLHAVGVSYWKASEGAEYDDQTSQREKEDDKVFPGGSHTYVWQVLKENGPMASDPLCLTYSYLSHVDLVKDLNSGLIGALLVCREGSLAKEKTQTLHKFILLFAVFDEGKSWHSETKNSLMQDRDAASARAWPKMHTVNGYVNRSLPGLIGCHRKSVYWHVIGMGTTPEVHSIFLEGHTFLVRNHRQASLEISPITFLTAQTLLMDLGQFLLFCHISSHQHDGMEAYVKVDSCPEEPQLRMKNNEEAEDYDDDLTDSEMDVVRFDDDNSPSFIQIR
T1 sequence 2: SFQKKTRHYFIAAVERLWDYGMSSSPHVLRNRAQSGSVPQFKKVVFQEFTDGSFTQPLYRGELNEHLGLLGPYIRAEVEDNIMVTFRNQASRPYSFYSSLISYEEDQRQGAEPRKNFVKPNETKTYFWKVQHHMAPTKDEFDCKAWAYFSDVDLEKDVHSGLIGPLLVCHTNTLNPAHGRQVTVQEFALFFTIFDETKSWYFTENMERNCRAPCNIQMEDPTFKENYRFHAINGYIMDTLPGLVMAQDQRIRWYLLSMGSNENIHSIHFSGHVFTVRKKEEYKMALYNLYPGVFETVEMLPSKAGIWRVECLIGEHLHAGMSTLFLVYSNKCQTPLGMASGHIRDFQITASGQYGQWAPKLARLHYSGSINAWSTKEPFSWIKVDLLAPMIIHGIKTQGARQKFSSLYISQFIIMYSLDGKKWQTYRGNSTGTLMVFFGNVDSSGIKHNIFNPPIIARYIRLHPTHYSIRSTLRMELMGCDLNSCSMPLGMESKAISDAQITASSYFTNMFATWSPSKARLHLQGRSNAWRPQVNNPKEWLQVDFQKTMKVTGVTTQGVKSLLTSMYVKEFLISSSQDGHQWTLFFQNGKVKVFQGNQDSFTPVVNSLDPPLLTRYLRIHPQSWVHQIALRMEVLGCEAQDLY
Experiment: cell-based or functional assay

Factor VIIIa decay rate relative to wild type, FIXa (+) | Factor VIIIa decay rate relative to wild type, FIXa (-) | Factor VIIIa decay rate, FIXa (+) | Factor VIIIa decay rate, FIXa (-) | Binder
40.4 relative to wild type | 7 relative to wild type | 0.455 min⁻¹ | 0.442 min⁻¹ | B1
2.33 relative to wild type |  | 0.0263 min⁻¹ |  | B2
6.72 relative to wild type |  | 0.0758 min⁻¹ |  | B3
4.83 relative to wild type |  | 0.0545 min⁻¹ |  | B4
1.31 relative to wild type |  | 0.0148 min⁻¹ |  | B5
36.3 relative to wild type | 18.8 relative to wild type | 0.41 min⁻¹ | 1.18 min⁻¹ | B6
1.28 relative to wild type |  | 0.0144 min⁻¹ |  | B7
0.81 relative to wild type |  | 0.0091 min⁻¹ |  | B8
2.81 relative to wild type |  | 0.0317 min⁻¹ |  | B9
1.05 relative to wild type |  | 0.0118 min⁻¹ |  | B10
